For assay [1], the target named is T1, CD99 endogenously expressed on cells (Jurkat, KOPT-K1) (human, UniProt P14209 23-185, O-linked glycosylation (natural, on cells)).
T1 sequence: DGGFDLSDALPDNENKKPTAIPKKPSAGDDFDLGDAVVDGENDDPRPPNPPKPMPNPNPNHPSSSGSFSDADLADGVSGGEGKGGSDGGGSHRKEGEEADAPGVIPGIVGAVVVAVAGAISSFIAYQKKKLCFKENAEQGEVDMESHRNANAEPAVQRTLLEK
Put plainly: cell-based or functional assay.

Assay [2] deals with T1, CD99 endogenously expressed on cells …. In words: flow cytometry titration on KOPT-K1 cells; apparent KD (FIG. 3B).
Procedure: (§1) The cells were washed three times, and resuspended in 100 μL of PBS/2% FBS and analyzed on a HyperCyt screener (Satorius). […] Gating for flow cytometry consisted of FSC vs SSC cell gating, followed by single cell gating in FSC-H or FSC-A vs FSC-W to remove aggregates. For all samples cells were gated for Propidium Iodide negative. […] Data collection performed on ZE5 Cell Analyzer (BioRad) or Guava easyCyte (Luminex) flow cytometers. Signals reported are median fluorescence intensities.
To assess if enhanced cytotoxic effect is the consequence of enhanced binding to cells, binding of these antibodies was measured to KOPT-K1 cells (FIG. 3B).
Assay [3] has as its target T2, recombinant CD99 extracellular domain (fusion partner not given) (human, UniProt P14209 23-122).
T2 construct: also called CD99 ECD; human CD99; not shown: N-terminal 6xHis tag, AviTag, TEV site and a fusion partner (SUMO or GFP)
T2 sequence: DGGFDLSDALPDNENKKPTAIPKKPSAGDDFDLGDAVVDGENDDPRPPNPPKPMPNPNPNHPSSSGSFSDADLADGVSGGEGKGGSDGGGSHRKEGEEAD
Put plainly: Western blot of recombinant CD99.

Assay [4] deals with T1, CD99 endogenously expressed on cells …. Put plainly: flow cytometry on Jurkat cells (FIG. 1E).
Procedure: as §1
To assess if the antibodies bind to CD99 with posttranslational modifications, their binding to CD99 on cells was tested.
The target of another assay is T3, mouse CD99 (mouse, UniProt Q8VCN6 29-137, limits assumed).
T3 sequence (looked up): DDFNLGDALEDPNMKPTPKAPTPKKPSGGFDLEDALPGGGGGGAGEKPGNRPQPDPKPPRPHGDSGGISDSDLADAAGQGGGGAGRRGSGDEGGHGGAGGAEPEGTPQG
In words: binding of scFv-Fc to CD99 from different species (FIG. 1C).

The target in assay [5] is T4, CD99L2 extracellular domain (human, UniProt Q8TCZ2 26-185).
T4 construct: extracellular domain
T4 sequence (looked up): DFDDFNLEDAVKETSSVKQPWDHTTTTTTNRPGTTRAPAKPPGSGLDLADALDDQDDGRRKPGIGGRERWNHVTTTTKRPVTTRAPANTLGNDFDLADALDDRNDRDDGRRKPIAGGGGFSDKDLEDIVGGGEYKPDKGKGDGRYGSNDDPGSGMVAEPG
In words: binding of scFv-Fc to immobilized homolog ECDs (FIG. 1B).

The target of assay [6] is T5, Glycoprotein Xg extracellular domain (human, UniProt P55808 22-142).
T5 construct: extracellular domain
T5 sequence (looked up): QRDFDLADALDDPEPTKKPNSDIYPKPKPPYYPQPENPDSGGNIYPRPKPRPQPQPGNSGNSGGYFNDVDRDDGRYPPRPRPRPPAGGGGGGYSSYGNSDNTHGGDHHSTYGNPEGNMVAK
The assay is described as above.

The target of assay [7] is T1, CD99 endogenously expressed on cells …. Put plainly: flow cytometry titration on Jurkat cells (FIG. 1G).
Procedure: The cells were washed three times, and resuspended in 100 μL of PBS/2% FBS and analyzed on a HyperCyt screener (Satorius). […] Gating for flow cytometry consisted of FSC vs SSC cell gating, followed by single cell gating in FSC-H or FSC-A vs FSC-W to remove aggregates. For all samples cells were gated for Propidium Iodide negative. T-ALL patient samples cells were then gated for human CD45 positive followed by CD34 negative, and finally CD7 positive. For healthy donor PBMC samples cells were gated for human CD45 positive followed by CD34 positive and CD34 negative. Data collection performed on ZE5 Cell Analyzer (BioRad) or Guava easyCyte (Luminex) flow cytometers. Signals reported are median fluorescence intensities.
The target of assay [8] is T6, SAV-CD99 complex (biotinylated CD99 ECD tetramerized on streptavidin) (human, UniProt P22629 37-163 (Streptomyces avidinii entry), limits assumed, DyLight650 label; biotin on the AviTag).
T6 construct: also called tetramerized CD99; tetramerized SUMO-CD99; not shown: N-terminal 6xHis tag, AviTag, TEV site and fusion partner
T6 sequence (P22629 37-163 limits assumed, one chain of several): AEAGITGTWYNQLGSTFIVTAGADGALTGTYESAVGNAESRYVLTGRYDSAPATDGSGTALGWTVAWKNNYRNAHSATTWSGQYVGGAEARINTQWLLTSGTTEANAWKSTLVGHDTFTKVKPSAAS
Put plainly: yeast display binding signal (FIG. 5E).

Residue numbers refer to the chain shown, from its start. In names and notes the source's numbering stands.

B1: 10A1 IgG-E345R (antibody)
heavy: QVQLQQSGPVLVKPSQTLSLTCAISGDSISSDTTAWSWIRRSPSRGLEWLGWTYYRSKWFNYYAVSVKGRVTINPDTSKNQFSLQLSSVTPEDTAVYYCARGNGNGGMDVWGQGTTVTVSSASTKGPSVFPLAPSSKSTSGGTAALGCLVKDYFPEPVTVSWNSGALTSGVHTFPAVLQSSGLYSLSSVVTVPSSSLGTQTYICNVNHKPSNTKVDKKVEPKSCDKTHTCPPCPAPEAAGGPSVFLFPPKPKDTLMISRTPEVTCVVVDVSHEDPEVKFNWYVDGVEVHNAKTKPREEQYNSTYRVVSVLTVLHQDWLNGKEYKCKVSNKALGAPIEKTISKAKGQPRRPQVYTLPPSREEMTKNQVSLTCLVKGFYPSDIAVEWESNGQPENNYKTTPPVLDSDGSFFLYSKLTVDKSRWQQGNVFSCSVMHEALHNHYTQKSLSLSPGK
light: SYVLTQPASASVSPGQTARITCSGDALPKQYAYWYQQKPGQAPVLVIFKDSERPSGVPERFSGSSSGTTVTLTISGAQAEDEADYYCQSVDNSGFYQVFGGGTQLTVLRTVAAPSVFIFPPSDEQLKSGTASVVCLLNNFYPREAKVQWKVDNALQSGNSQESVTEQDSKDSTYSLSSTLTLSKADYEKHKVYACEVTHQGLSSPVTKSFNRGEC
notes: Valency of twelve as a hexamer; also called 10A1 E345R; 'inducible hexamer'
As for B1, the “IC50 of cytotoxicity (Annexin V, KOPT-K1 cells, 18 hours)” value in assay [1] is 299 nM Fv. Also, the “fold higher KD than IgG-RGY, IgG-HCscFv and IgG” value in assay [2] was around 3 fold.

B2: 10A1 IgG-RGY (antibody)
heavy: B1 heavy with E434G, S444Y
light: B1 light
For B2, the “IC50 of cytotoxicity (Annexin V, KOPT-K1 cells, 18 hours)” value in assay [1] was found to be 442 nM Fv.

B3: clone 30 in the scFv-Fc format (Fc fusion)
chain: EVQLLETGGGLVQPGGSLRLSCAASGFTFSSSAMHWVRQAPGKGLEWVAAISYDGSDTYYADSVKGRFTISRDNAKNTLYLQMNSLRDEDTAVYYCARDQVLGSGSLDYWGQGTLVTVSSGILGSGGGGSGGGGSGGGGSNFMLTQPHSVSESPGKTVTISCTRSSGSIGSYYVQWYQQRPGSPPTTVIYEDDKRPSGVPDRFSGSIDSSSNSASLTISGLKTEDEADYYCQSYDSSHVVFGGGTKLTVLSGSSSSLEGCKPCICTVPEVSSVFIFPPKPKDVLTITLTPKVTCVVVDISKDDPEVQFSWFVDDVEVHTAQTQPREEQFNSTFRSVSELPIMHQDWLNGKEFKCRVNSAAFPAPIEKTISKTKGRPKAPQVYTIPPPKEQMAKDKVSLTCMITDFFPEDITVEWQWNGQPAENYKNTQPIMDTDGSYFVYSKLNVQKSNWEAGNTFTCSVLHEGLHNHHTEKSLSHSPGKGGGGLNDIFEAQKIEWHESRHHHHHH
notes: The format mimics the bivalent IgG architecture
In the case of B3, the binding result in assay [3] is given as “binds”; in assay [4] it was “binds”; in the assay with mouse CD99, “no binding (tested: 1 µM Fv)”; in assay [5], “no binding (tested: 600 nM Fv)”; in assay [6], “no binding (tested: 600 nM Fv)”.

B4: 10A1 in the scFv-Fc format (Fc fusion)
chain: QVQLQQSGPVLVKPSQTLSLTCAISGDSISSDTTAWSWIRRSPSRGLEWLGWTYYRSKWFNYYAVSVKGRVTINPDTSKNQFSLQLSSVTPEDTAVYYCARGNGNGGMDVWGQGTTVTVSSGILSGSSSSGSSSSGSSSSGYVLTQPASASVSPGQTARITCSGDALPKQYAYWYQQKPGQAPVLVIFKDSERPSGVPERFSGSSSGTTVTLTISGAQAEDEADYYCQSVDNSGFYQVFGGGTQLTVLSGSSSSLEGCKPCICTVPEVSSVFIFPPKPKDVLTITLTPKVTCVVVDISKDDPEVQFSWFVDDVEVHTAQTQPREEQFNSTFRSVSELPIMHQDWLNGKEFKCRVNSAAFPAPIEKTISKTKGRPKAPQVYTIPPPKEQMAKDKVSLTCMITDFFPEDITVEWQWNGQPAENYKNTQPIMDTDGSYFVYSKLNVQKSNWEAGNTFTCSVLHEGLHNHHTEKSLSHSPGKGGGGLNDIFEAQKIEWHESRHHHHHH
notes: Bivalent; also called 10A1 scFv-Fc
On to B4, for which, in assay [7], the “fold improvement of apparent KD over Clone 10” value is 14 fold.

B5: clone 22 in the scFv-Fc format (Fc fusion)
chain: QVQLQQSGPGLVKPSQTLSLTCAISGDSVSSNSAAWNWIRQSPSRGLEWLGRTYYRSKWYNDYAVSVKSRITINPDTSKNQFSLQLNSVTPEDTAVYYCARGSYGSGLVWGQGTTVTVSSGSASAPTGILGSGGGGSGGGGSGGGGSNFMLTQPHSVSESPGKTVTISCTGSSGSIASNYVQWYQQRPGSAPTTVIYEDDQRPSGVPDRFSGSLDTSSNSASLTISGLRPEDEADYYCQSYDNKDNVVFGGGTKVTVLSGSSSSLEGCKPCICTVPEVSSVFIFPPKPKDVLTITLTPKVTCVVVDISKDDPEVQFSWFVDDVEVHTAQTQPREEQFNSTFRSVSELPIMHQDWLNGKEFKCRVNSAAFPAPIEKTISKTKGRPKAPQVYTIPPPKEQMAKDKVSLTCMITDFFPEDITVEWQWNGQPAENYKNTQPIMDTDGSYFVYSKLNVQKSNWEAGNTFTCSVLHEGLHNHHTEKSLSHSPGKGGGGLNDIFEAQKIEWHESRHHHHHH
notes: as for B3
Take B5: the binding result was “binds” in assay [3]; “binds” in [4]; “no binding (tested: 1 µM Fv)” in the assay with mouse CD99; “no binding (tested: 600 nM Fv)” in [5]; “no binding (tested: 600 nM Fv)” in assay [6].

B6: 10A1 with light chain D50 mutated to serine (yeast display format) (scFv, V domains shown)
VH: QVQLQQSGPVLVKPSQTLSLTCAISGDSISSDTTAWSWIRRSPSRGLEWLGWTYYRSKWFNYYAVSVKGRVTINPDTSKNQFSLQLSSVTPEDTAVYYCARGNGNGGMDVWGQGTTVTVSS
VL: SYVLTQPASASVSPGQTARITCSGDALPKQYAYWYQQKPGQAPVLVIFKSSERPSGVPERFSGSSSGTTVTLTISGAQAEDEADYYCQSVDNSGFYQVFGGGTQLTVL
notes: also called D50L to serine
Consider B6, for which the binding result in assay [8] was “no binding (tested: 100 nM SAV-CD99 complex)”.

B7: 10A1 with light chain D91 mutated to serine (yeast display format) (scFv, V domains shown)
VH: B6 VH
VL: B6 VL with S50D, D91S
notes: also called D91L to serine
On to B7, for which the binding result in assay [8] is “no binding (tested: 100 nM SAV-CD99 complex)”.

B8: clone 10 in the scFv-Fc format (Fc fusion)
chain: QVQLQQSGPVLVKPSQTLSLTCAISGDSVSSDTTAWSWIRQSPSRGLEWLGWTYYRSKWFNYYAVSVKSRVTINPDTSKNQFSLQLSSVTPEDTAVYYCARGNGNGGMDVWGQGTTVTVSSGILGSGGGGSGGGGSGGGGSSYVLTQPPSVSVSPGQTARITCSGDALPKQYAYWYQQKPGQAPVLVIFKDSERPSGIPERFSGSSSGTTVTLTISGVQAEDEADYYCQSADNSGFYQVFGGGTQLTVLSGSSSSLEGCKPCICTVPEVSSVFIFPPKPKDVLTITLTPKVTCVVVDISKDDPEVQFSWFVDDVEVHTAQTQPREEQFNSTFRSVSELPIMHQDWLNGKEFKCRVNSAAFPAPIEKTISKTKGRPKAPQVYTIPPPKEQMAKDKVSLTCMITDFFPEDITVEWQWNGQPAENYKNTQPIMDTDGSYFVYSKLNVQKSNWEAGNTFTCSVLHEGLHNHHTEKSLSHSPGKGGGGLNDIFEAQKIEWHESRHHHHHH
notes: also called Clone 10 scFv-Fc antibody
On to B8, for which the binding result is given as “binds” in [3], “no binding (tested: 600 nM Fv)” in [5] and “no binding (tested: 600 nM Fv)” in [6].

The record behind these values is US20240190985A1 (NEW YORK UNIVERSITY, published 2024).
